Experiments:
[1] = target: PAM4 antigen (pancreatic cancer mucin, CaPan1 human pancreatic tumor); assay: ELISA on target mucin antigen (FIG. 9)
[2] = target: PAM4 antigen (pancreatic cancer mucin, CaPan1 human pancreatic tumor); assay: radioiodinated TF10 mixed with mucin (not shown)
[3] = target: IMP-288 di-HSG hapten-peptide, DOTA-D-Tyr-D-Lys(HSG)-D-Glu-D-Lys(HSG)-NH2; assay: 111In-IMP-288 mixed with TF10, elution analysis (not shown)
[4] = target: PAM4 antigen (pancreatic cancer mucin, CaPan1 human pancreatic tumor); assay: TF10/111In-IMP-288 complex mixed with excess mucin, elution analysis

Substance	EC50 [1] [nM]	immunoreactive fraction [2] [%]	percent of peptide bound [3] [%]	percent of TF10-bound IMP-288 eluting at higher molecular weight with excess mucin [4] [%]
PAM4-F(ab′)2	1.83	–	–	–
TF10 bispecific ([hPAM4]2 x h679) DNL construct (bispecific antibody)	1.42	87	90	92

From patent US20170035908A1
